Source: publication PMC5454376 (2017)
Positions count from the first letter of the chain named. Like-named read-outs stand apart in the source and are kept apart here. Blank lines part the entries; values can stand above or below the binder they belong to. Where no end group is shown, it is not given here.

What was measured:
[1] = target: Human His-Gαi3 I184 mutant (human, UniProt P08754 1-354); assay: FP
[2] = target: Human His-Gαi3 L39 mutant (human, UniProt P08754 1-354); assay: FP
[3] = target: Human His-Gαi3 V218 mutant (human, UniProt P08754 1-354); assay: FP
[4] = target: Human His-Gαi3 L36 mutant (human, UniProt P08754 1-354); assay: FP
[5] = target: Human His-Gαi3 K257 mutant (human, UniProt P08754 1-354); assay: FP
[6] = target: Human His-Gαi3 W258 mutant (human, UniProt P08754 1-354); assay: FP
[7] = target: Human His-Gαi3 L37 mutant (human, UniProt P08754 1-354); assay: FP
[8] = target: Human His-Gαi3 G42 mutant (human, UniProt P08754 1-354); assay: FP
[9] = target: Human His-Gαi3 F259 mutant (human, UniProt P08754 1-354); assay: FP
Human His-Gαi3 S252A = Human His-Gαi3 S252A (human, UniProt P08754 1-354, S252 mutated to A); assay: FP
Human His-Gαi3 L249H = Human His-Gαi3 L249H (human, UniProt P08754 1-354, L249H); assay: FP
Human His-Gαi3 W211A = Human His-Gαi3 W211A (human, UniProt P08754 1-354, W211A); assay: FP
Gαi3 L249V = target: T1, Gαi3 L249V (Homo sapiens); assay: FP
T1 chain: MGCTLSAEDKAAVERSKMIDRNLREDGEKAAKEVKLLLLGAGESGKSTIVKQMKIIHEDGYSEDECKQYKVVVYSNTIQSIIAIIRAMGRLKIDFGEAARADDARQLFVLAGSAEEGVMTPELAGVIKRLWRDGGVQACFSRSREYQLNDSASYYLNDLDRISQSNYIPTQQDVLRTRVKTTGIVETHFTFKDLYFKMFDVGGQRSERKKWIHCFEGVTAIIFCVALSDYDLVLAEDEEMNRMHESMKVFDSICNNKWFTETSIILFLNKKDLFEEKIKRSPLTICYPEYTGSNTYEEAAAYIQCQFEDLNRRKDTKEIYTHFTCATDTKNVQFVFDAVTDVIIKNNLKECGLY

Human His-Gαi3 WT [10] = target: T2, Human His-Gαi3 WT (human, UniProt P08754 1-354); assay: FP
T2 chain: T1 chain with V249L

Human His-Gαi3 S252D = Human His-Gαi3 S252D (human, UniProt P08754 1-354, S252D); assay: FP
[11] = target: Human His-Gαi3 R313 mutant (human, UniProt P08754 1-354); assay: FP
Human His-Gαi3 N256A = Human His-Gαi3 N256A (human, UniProt P08754 1-354, N256 mutated to A); assay: FP
Human His-Gαi3 WT [12] = target: T2, Human His-Gαi3 WT; assay: FP
Human His-Gαi3 WT [13] = target: T2, Human His-Gαi3 WT; assay: FP
[14] = target: T3, Human His-Gαi3 ΔC9 (lacking the last nine residues) (human, UniProt P08754 1-345); assay: FP
T3 chain: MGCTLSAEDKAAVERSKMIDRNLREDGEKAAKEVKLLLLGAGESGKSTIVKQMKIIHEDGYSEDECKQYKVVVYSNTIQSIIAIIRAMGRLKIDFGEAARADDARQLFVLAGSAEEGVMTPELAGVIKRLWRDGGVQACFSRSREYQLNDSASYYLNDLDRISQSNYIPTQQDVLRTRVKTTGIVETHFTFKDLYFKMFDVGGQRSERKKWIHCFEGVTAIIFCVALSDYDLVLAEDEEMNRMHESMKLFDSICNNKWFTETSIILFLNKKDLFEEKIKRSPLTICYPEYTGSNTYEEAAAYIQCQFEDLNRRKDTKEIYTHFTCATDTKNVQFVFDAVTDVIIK

[15] = target: T4, Human His-Gαi3 K317 mutant (human, UniProt P08754 1-354); assay: FP; K317A
[16] = target: T4, Human His-Gαi3 K317 mutant; assay: FP; K317W
[17] = target: T5, Full-length human Gαi3, untagged (NMR sample) (human, UniProt P08754 1-354); assay: FP; His-tag cleaved Gαi3
T5 chain: T1 chain with V249L

- Kd [1]: 83 nM
- Kd [2]: 176 nM
- Kd [3]: 104 nM
- Kd [4]: 119 nM
- Kd [5]: 86 nM
- Kd [6]: 63 nM
- Kd [7]: 80 nM
- Kd [8]: 98 nM
- Kd [9]: 187 nM
- Kd (Human His-Gαi3 S252A): 35 nM
- Kd (Human His-Gαi3 L249H): 266 nM
- Kd (Human His-Gαi3 W211A): 61 nM
- Kd (Gαi3 L249V): 84 nM
- Kd (Human His-Gαi3 WT [10]): 54 nM
- Kd (Human His-Gαi3 S252D): 336 nM
B1: Fluorescein-labelled RGS12 GoLoco peptide (residues 1,185–1,221) (peptide)
peptide: DEAEEFFELISKAQSNRADDQRGLLRKEDLVLPEFLR
modifications: not fully specified (N-terminus); also: 5,6-carboxyfluorescein coupled to resin-bound peptide after elongation, site not given here

- Kd [11]: 800 nM
- Kd [1]: 1910 nM
- Kd [2]: 3080 nM
- Kd [3]: 362 nM
- Kd [4]: 706 nM
- Kd [5]: 870 nM
- Kd [6]: 1820 nM
- Kd [7]: 478 nM
- Kd [8]: 377 nM
- Kd [9]: 1260 nM
- Kd (Human His-Gαi3 L249H): 4410 nM
- Kd (Gαi3 L249V): 1370 nM
- Kd (Human His-Gαi3 WT [10]): 581 nM
- Kd (Human His-Gαi3 S252D): 3090 nM
- Kd (Human His-Gαi3 N256A): 1040 nM
- Kd (Human His-Gαi3 WT [12]): 580 nM
- Kd (Human His-Gαi3 WT [13]): 580 nM
- Kd [14]: 700 nM
- Kd [15]: 590 nM
- Kd [16]: 510 nM
- Kd [17]: 680 nM
B2: Fluorescein-labelled GIV peptide (residues 1,671–1,701) (peptide)
peptide: KTGSPGSEVVTLQQFLEESNKLTSVQIKSSS
modifications: not fully specified (N-terminus); also: 5,6-carboxyfluorescein coupled to resin-bound peptide after elongation, site not given here
